Results reported in article PMC9504884, “Functional Interactions of Kluyveromyces lactis Telomerase Reverse Transcriptase with the Three-Way Junction and the Template Domains of Telomerase RNA”.

Assays:
Assay in all cases: EMSA; 1 nM RNA, tRNA competitor; 25 mM Tris-HCl pH 7.5, 50 mM KCl, 1 mM MgCl2, 1 mM DTT, 10% glycerol, 0.1% Triton, 0.5 mg/mL BSA, 1.7 ng/uL yeast tRNA, 1 nM RNA probe; 15 min on ice then 10 min room temperature; gel at 6 C
klTRBD klEst2 171-404 = molecular target: T1, klTRBD klEst2 171-404 (Kluyveromyces lactis, UniProt Q6CSS0 171-404); conditions: protein: recombinant; tags: N-terminal His-SUMO, TEV-cleaved; label: 5'-32P when probe; three-way junction
T1 sequence: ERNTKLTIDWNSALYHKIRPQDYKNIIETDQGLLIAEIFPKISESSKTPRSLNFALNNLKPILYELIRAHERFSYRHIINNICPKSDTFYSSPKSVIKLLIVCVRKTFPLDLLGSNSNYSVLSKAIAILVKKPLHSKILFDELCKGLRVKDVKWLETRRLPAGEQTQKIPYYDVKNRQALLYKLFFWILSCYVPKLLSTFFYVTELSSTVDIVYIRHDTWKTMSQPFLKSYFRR

klTRBD klEst2 171-422 = molecular target: T2, klTRBD klEst2 171-422 (Kluyveromyces lactis, UniProt Q6CSS0 171-422); conditions: protein: recombinant; tags: N-terminal His-SUMO, TEV-cleaved; label: 5'-32P when probe; three-way junction
T2 sequence: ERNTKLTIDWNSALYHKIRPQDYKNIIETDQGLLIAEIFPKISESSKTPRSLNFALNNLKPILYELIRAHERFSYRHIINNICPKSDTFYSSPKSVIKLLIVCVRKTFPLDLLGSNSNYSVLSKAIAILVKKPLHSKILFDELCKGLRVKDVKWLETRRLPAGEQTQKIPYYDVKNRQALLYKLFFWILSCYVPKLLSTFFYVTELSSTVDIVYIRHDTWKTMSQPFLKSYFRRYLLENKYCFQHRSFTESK

[1] = molecular target: T3, klEst2 full-length (TERT) (Kluyveromyces lactis, UniProt Q6CSS0 1-861); conditions: protein: recombinant; tags: expressed in E. coli; His-SUMO tag described for the TRBD constructs, tag of full-length not clearly stated; label: 5'-32P when probe; three-way junction
T3 sequence: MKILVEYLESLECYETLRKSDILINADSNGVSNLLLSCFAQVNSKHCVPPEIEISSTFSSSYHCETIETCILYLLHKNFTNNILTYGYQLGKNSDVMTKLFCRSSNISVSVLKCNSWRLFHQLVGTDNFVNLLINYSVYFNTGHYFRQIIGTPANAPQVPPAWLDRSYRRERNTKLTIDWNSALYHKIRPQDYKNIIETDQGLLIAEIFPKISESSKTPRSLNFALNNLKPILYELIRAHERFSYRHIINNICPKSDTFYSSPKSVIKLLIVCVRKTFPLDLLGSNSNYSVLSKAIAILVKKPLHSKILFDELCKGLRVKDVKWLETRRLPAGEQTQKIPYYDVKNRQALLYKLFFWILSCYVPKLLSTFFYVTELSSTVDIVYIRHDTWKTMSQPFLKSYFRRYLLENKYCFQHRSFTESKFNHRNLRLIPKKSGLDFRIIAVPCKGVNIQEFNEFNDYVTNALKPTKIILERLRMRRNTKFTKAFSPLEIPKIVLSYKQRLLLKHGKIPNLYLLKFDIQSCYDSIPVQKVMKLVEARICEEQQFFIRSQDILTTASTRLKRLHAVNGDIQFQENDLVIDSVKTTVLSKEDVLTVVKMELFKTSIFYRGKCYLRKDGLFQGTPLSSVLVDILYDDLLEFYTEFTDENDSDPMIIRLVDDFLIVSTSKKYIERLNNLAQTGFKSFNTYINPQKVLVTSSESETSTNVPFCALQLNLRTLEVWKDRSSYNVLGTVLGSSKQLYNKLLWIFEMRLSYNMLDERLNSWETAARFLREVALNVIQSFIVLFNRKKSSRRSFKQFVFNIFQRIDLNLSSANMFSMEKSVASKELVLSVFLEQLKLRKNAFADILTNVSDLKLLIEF

B1: minTWJ (structured_RNA)
RNA: GGGUUGUCCUAUGGUGGAUCUUGAAAAGACCCUCGGAAGACAGGGCCACAUCGACGAUCAAUAUUUUGCCGUGAGGCUUAUAUGUCACCAUGGCAUGCAGCCC
Question: Does B1 bind (klTRBD klEst2 171-404)?
Answer: Result: no binding

Question: Does B1 bind (klTRBD klEst2 171-422)?
Answer: Result: no binding

Question: Does B1 bind [1]?
Answer: Result: binds
